This is an account of results in patent US20170129962A1 (Hoffmann-La Roche, published 2017).

Experiment [1] concerns the target T1, TWEAK (human, UniProt O43508 94-249, limits assumed).
T1 construct: The method paragraph says only 'TWEAK'; also called human TWEAK; TNF-related weak inducer of apoptosis
T1 sequence (looked up): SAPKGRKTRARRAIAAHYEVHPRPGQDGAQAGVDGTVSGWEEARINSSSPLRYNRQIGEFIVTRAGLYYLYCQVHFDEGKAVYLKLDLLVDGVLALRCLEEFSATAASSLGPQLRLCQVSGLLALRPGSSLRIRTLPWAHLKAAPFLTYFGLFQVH
Description: SPR (Biacore), TWEAK amine-coupled on C1 chip, bispecific antibody as analyte, 1:1 Langmuir. The protocol: Around 100 RU of TWEAK was immobilized on the C1 chip surface at pH 5.0 using an amine coupling kit supplied by the GE Healthcare. The sample and system buffer was PBS-T (10 mM phosphate buffered saline including 0.05% Tween 20) pH 7.4. Association was measured by injection the bispecific antibody in various concentrations in solution for 3 min at a flow of 30 μl/min starting with 50 nM in 1:1 serial dilutions. The dissociation phase was monitored for up to 10 min and triggered by switching from the sample solution to running buffer. The surface was regenerated three times by 30 sec wash with a 3 M MgCl2 solution at a flow rate of 30 μl/min. Bulk refractive index differences were corrected by subtracting the response obtained from a blank-coupled surface. Blank injections are also subtracted (=double referencing). For calculation of KD and other kinetic parameters, the Langmuir 1:1 model was used.
(§1) Binding of the multispecific antibodies to their respective target antigens, i.e. IL17 and TWEAK, was assessed by Biacore® as described in the general methods section.

In experiment [2] the target is T2, human IL17 (human, UniProt Q16552 24-155).
T2 construct: for that reason an apparent KD is reported; also called IL17-A
T2 sequence (looked up): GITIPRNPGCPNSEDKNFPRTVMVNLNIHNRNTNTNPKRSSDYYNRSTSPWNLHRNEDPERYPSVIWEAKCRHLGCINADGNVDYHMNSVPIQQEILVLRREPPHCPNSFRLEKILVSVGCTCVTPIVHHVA
Description: SPR (Biacore), bispecific antibody captured by anti-human F(ab')2, human IL17 as analyte, 1:1 Langmuir, apparent KD. As for the experimental part: (§2) Around 6000 resonance units (RU) of the capturing system (15 μg/ml goat anti human F(ab′)2; Order Code: 28958325; GE Healthcare Bio-Sciences AB, Schweden) were coupled on a CMS chip at pH 5.0 by using an amine coupling kit supplied by the GE Healthcare. The sample and system buffer was PBS-T (10 mM phosphate buffered saline including 0.05% Tween 20) pH 7.4. The bispecific antibody was captured by injecting a 50 nM solution for 90 sec at a flow of 10 μl/min. Association was measured by injection human IL17 in various concentrations in solution for 3 min at a flow of 30 μl/min starting with 50 nM in 1:1 serial dilutions. The dissociation phase was monitored for up to 10 min and triggered by switching from the sample solution to running buffer. The surface was regenerated twice by 60 sec wash with a 10 mM glycine pH 2.1 solution at a flow rate of 30 μl/min. Bulk refractive index differences were corrected by subtracting the response obtained from a goat anti human F(ab′)2 surface. Blank injections are also subtracted (=double referencing). For calculation of apparent KD and other kinetic parameters, the Langmuir 1:1 model was used.
as §1

Experiment [3] deals with T2, human IL17. Description: SPR (Biacore), bispecific antibody captured by anti-human F(ab')2, human IL17 as analyte, 1:1 Langmuir. The protocol:
as §2, §1

B1: TweakIL17-0134 (bispecific antibody, human IgG4 S228P, kappa)
light 1: DIVMTQSPLSLPVTPGEPASISCRSSQSLVHSNGDTYFHWYLQKPGQSPQLLIYKVSNRFSGVPDRFSGSGSGTDFTLKISRVEAEDVGVYYCSQTTHAPFTFGQGTKLEIKRTVAAPSVFIFPPSDEKLKSGTASVVCLLNNFYPREAKVQWKVDNALQSGNSQESVTEQDSKDSTYSLSSTLTLSKADYEKHKVYACEVTHQGLSSPVTKSFNRGEC
heavy 1: EVQLVESGGGLVQPGGSLRLSCAASGFSLDSYGVHWVRQATGKGLEWVSVIWSDGTTTYNSALKSRFTISRENAKNSLYLQMNSLRAGDTAVYYCARDTHYRLYYYAMDYWGQGTTVTVSSASTKGPSVFPLAPCSRSTSESTAALGCLVEDYFPEPVTVSWNSGALTSGVHTFPAVLQSSGLYSLSSVVTVPSSSLGTKTYTCNVDHKPSNTKVDKRVESKYGPPCPPCPAPEFEGGPSVFLFPPKPKDTLMISRTPEVTCVVVDVSQEDPEVQFNWYVDGVEVHNAKTKPREEQFNSTYRVVSVLTVLHQDWLNGKEYKCKVSNKGLPSSIEKTISKAKGQPREPQVCTLPPSQEEMTKNQVSLSCAVKGFYPSDIAVEWESNGQPENNYKTTPPVLDSDGSFFLVSRLTVDKSRWQEGNVFSCSVMHEALHNHYTQKSLSLSLGK
light 2: DIQMTQSPSSVSASVGDRVTITCQASQNIYSNLAWYQQKPGKAPKLLIYTASYLASGVPSRFSGSGSGTDYTLTISSLQPEDFATYYCQTAYYNSRPDTVAFGGGTKVEIKSSASTKGPSVFPLAPCSRSTSESTAALGCLVKDYFPEPVTVSWNSGALTSGVHTFPAVLQSSGLYSLSSVVTVPSSSLGTKTYTCNVDHKPSNTKVDKRVESKYG
heavy 2: QVQLVQSGAEVKKPGSSVKVSCKASGFDFSTYYMSWVRQAPGQGLEWMGTVYVRQGTTYYASWLNGRVTITADESTSTAYMELSSLRSEDTAVYYCARGGYNYDDAFVIWGQGTLVTVSSASVAAPSVFIFPPSDEELKSGTASVVCLLNNFYPREAKVQWKVDNALQSGNSQESVTEQDSKDSTYSLSSTLTLSKADYEKHKVYACEVTHQGLSSPVTKSFNRGECPPCPPCPAPEFEGGPSVFLFPPKPKDTLMISRTPEVTCVVVDVSQEDPEVQFNWYVDGVEVHNAKTKPREEQFNSTYRVVSVLTVLHQDWLNGKEYKCKVSNKGLPSSIEKTISKAKGQPREPQVYTLPPCQEEMTKNQVSLWCLVKGFYPSDIAVEWESNGQPENNYKTTPPVLDSDGSFFLYSRLTVDKSRWQEGNVFSCSVMHEALHNHYTQKSLSLSLGK
notes: CrossMAb CH1-CL, knob-into-hole with S354C/Y349C
Regarding B1, the Kd in experiment [1] and in experiment [2] was < 0.1 nM in each case. Besides, the values for the koff in experiment [1] and in experiment [3] were 3e-05 s⁻¹ and 0.000208 s⁻¹, respectively. Moreover, the kon in experiment [1] worked out at 870000 M⁻¹ s⁻¹; in experiment [3], 1.1e+07 M⁻¹ s⁻¹.
